Patent US20230392126A1, “TISSUE ORGANOIDS” (priority 2016, published 2023)

Key:
[1] = Stability and tolerance of transplanted skin organoids in immunocompetent hosts; format: in vivo, mouse; conditions: CD1 hosts
Source text: For grafting with skin organoids, CD1 (isogenic mouse keratinocyte transplantation) males or Nude (human keratinocyte transplantation) females with the ages of 6-8 weeks were anesthetized. A silicone chamber bottom with the interior diameter of 0.8 cm and the exterior diameter of 1.5 cm was implanted on its shaved dorsal mid-line skin, which was used to hold the skin graft. A chamber cap was installed to seal the chamber right after a piece of graft was implanted. About one week later, the chamber cap was removed to expose the graft to air. A single dose of 0.2 mg α-CD4 (GK1.5) and 0.2 mg α-CD8 (2.43.1) antibodies was administered intraperitoneally for skin grafting.
Optical imaging was performed in the integrated small animal imaging research resource (iSAIRR) at the University of Chicago. Bioluminescence images were acquired on an IVIS Spectrum (Caliper Life Sciences®, Alameda, CA) after animal was injected with luciferin (100 mg/kg). […]
Grafted cells in immunocompetent hosts readily expressed exogenous genes, such as Luciferase and Histone H2B-RFP (FIG. 1B-D), which were transduced to the cells with lentivirus. […] Importantly, the tissue organoid with expression of exogenous gene, such as Luciferase and H2B-RFP, was stable in vivo for more than 5 months in immunocompetent hosts, as determined by intravital bioluminescence imaging and tissue histology. […]

[2] = test system: mouse epidermal stem cells; assay: Cell proliferation and differentiation of engineered mouse epidermal cells in vitro (cell cycle FACS, calcium shift western blot); format: cell-based
Experimental: Primary human neonatal epidermal keratinocytes were obtained from Thermo Fischer® (C0015C), and cultured with Epilife® medium (Thermo Fischer, M-EPICF-500) with manufacturer's recommended procedures. Calcium shift was performed to induce differentiation of primary keratinocytes by increasing the calcium concentration in culture media to 1.5 mM.
Propidium iodide (PI) staining followed by flow cytometry were used to determine the effect of cell cycle profiles. Mouse and human epidermal cells were cultured in two 6 cm cell culture dish for 24 hours, respectively. Cells were trypsinized, and 1×10^5 cells from each dish were collected, followed by one PBS wash. […] After staining, the cells were analyzed immediately using flow cytometer BD FACSCanto™ II (BD Biosciences, San Jose, CA) with an excitation wavelength at 488 nm and emission at 585 nm. DNA content and histograms of cell cycle distribution were analyzed using FlowJo™ software, version 10 (FLOWJO LLC, OR).
Western blotting was performed as described previously (Blanpain et al.). […] Visualization and quantification was carried out with the LI-COR Odyssey® scanner and software (LI-COR Biosciences).
Propidium iodide (PI) staining followed by flow cytometry were used to determine the effect of cell cycle profiles. […] DNA content and histograms of cell cycle distribution were analyzed using FlowJo™ software, version 10 (FLOWJO LLC, OR). […]

mouse epidermal cells = assay: Secretion of GLP1 in cell culture medium by ELISA (mouse epidermal cells); format: cell-based
human epidermal cells = assay: Secretion of GLP1 in culture medium by ELISA (human epidermal cells); format: cell-based; conditions: engineered human epidermal cells, doxycycline
Source text: To examine CRISPR-mediated genome editing in human epidermal cells, vectors encoding two gRNAs targeting human AAVS1 (adeno-associated virus integration site 1) locus, and an AAVS1-targeting vector (FIG. 16A) that harbors a tetracycline-inducible expression cassette encoding the GLP-1 and IgG-Fc fragment fusion protein were used. […] Clones were isolated and correct integration confirmed by southern blotting analysis (FIG. 13D).

[3] = GLP1 level in blood by ELISA, nude mice grafted with human skin organoids; format: in vivo, mouse; conditions: human GLP1-expressing grafts, doxycycline food
Source text: The engineered cells stratified and formed skin organoids in vitro, which were transplanted to nude hosts (FIG. 13G-H).

GLP1
rejection of skin grafts after transplantation [1]: No significant rejection of the skin grafts has been observed | effect of expression on cell proliferation / differentiation in vitro [2]: did not significantly change cell proliferation | GLP1 production and secretion (mouse epidermal cells; GLP1/GGBP expression cassette, constitutive): robust GLP1 production and secretion | GLP1 production (mouse epidermal cells; tetracycline-inducible cassette, doxycycline stimulation): robust GLP1 production upon stimulation with doxycycline in a dose-dependent manner | GLP1 production (human epidermal cells): strong GLP1 production upon dose-dependent stimulation with doxycycline | GLP1 in the blood [3]: significant secretion of GLP1 was detected in the blood
